In article doi:10.1101/276204 (bioRxiv, 2018):
Values belong to the molecule of their own block, whether it stands above or below them.

B2: eGFP-CENP-E^2070-C (domain or fragment, Homo sapiens, UniProt Q02224 2070-2701, looked up)
chain: RQNHQVKPEKRLLSDGQQHLTESLREKCSRIKELLKRYSEMDDHYECLNRLSLDLEKEIEFQKELSMRVKANLSLPYLQTKHIEKLFTANQRCSMEFHRIMKKLKYVLSYVTKIKEEQHESINKFEMDFIDEVEKQKELLIKIQHLQQDCDVPSRELRDLKLNQNMDLHIEEILKDFSESEFPSIKTEFQQVLSNRKEMTQFLEEWLNTRFDIEKLKNGIQKENDRICQVNNFFNNRIIAIMNESTEFEERSATISKEWEQDLKSLKEKNEKLFKNYQTLKTSLASGAQVNPTTQDNKNPHVTSRATQLTTEKIRELENSLHEAKESAMHKESKIIKMQKELEVTNDIIAKLQAKVHESNKCLEKTKETIQVLQDKVALGAKPYKEEIEDLKMKLVKIDLEKMKNAKEFEKEISATKATVEYQKEVIRLLRENLRRSQQAQDTSVISEHTDPQPSNKPLTCGGGSGIVQNTKALILKSEHIRLEKEISKLKQQNEQLIKQKNELLSNNQHLSNEVKTWKERTLKREAHKQVTCENSPKSPKVTGTASKKKQITPSQCKERNLQDPVPKESPKSCFFDSRSKSLPSPHPVRYFDNSSLGLCPEVQNAGAESVDSQPGPWHASSGKDVPECKTQ

What was measured:
[1] = molecular target: mCherry-CENP-F^2922-2990 (Homo sapiens) (UniProt P49454); assay: AUC
[2] = molecular target: mCherry-CENP-F^2866-2990 (Homo sapiens) (UniProt P49454); assay: AUC
eGFP-CENP-E^2070-C = molecular target: B2; assay: SEC
BubR1:Bub3 complex = BubR1:Bub3 complex (human, UniProt O60566 1-1050; O43684 1-328); assay: SEC
BubR1:Bub3 complex, sequence (O43684 whole entry, one chain of several): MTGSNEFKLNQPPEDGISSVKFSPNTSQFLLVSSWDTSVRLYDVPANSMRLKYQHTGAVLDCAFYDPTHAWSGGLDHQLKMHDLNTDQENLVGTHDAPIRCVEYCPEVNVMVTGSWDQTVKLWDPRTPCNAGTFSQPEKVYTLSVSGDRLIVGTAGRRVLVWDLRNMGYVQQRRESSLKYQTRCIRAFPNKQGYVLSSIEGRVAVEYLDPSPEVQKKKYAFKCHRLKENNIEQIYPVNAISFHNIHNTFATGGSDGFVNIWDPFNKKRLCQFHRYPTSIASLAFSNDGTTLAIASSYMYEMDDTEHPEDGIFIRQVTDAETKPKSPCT

stoichiometry N [1]: 2
Molecule: mCherry-CENP-F^2922-2990 (from UniProt P49454 2922-2990) (domain or fragment)

stoichiometry N [2]: 2
Molecule: mCherry-CENP-F^2866-2990 (from UniProt P49454 2866-2990) (domain or fragment)

binding result (eGFP-CENP-E^2070-C): binds
B1: BubR1 pseudokinase domain (KinD, residues 705-1050) (domain or fragment, human, UniProt O60566 705-1050, looked up)
chain: EKLELTNETSENPTQSPWCSQYRRQLLKSLPELSASAELCIEDRPMPKLEIEKEIELGNEDYCIKREYLICEDYKLFWVAPRNSAELTVIKVSSQPVPWDFYINLKLKERLNEDFDHFCSCYQYQDGCIVWHQYINCFTLQDLLQHSEYITHEITVLIIYNLLTIVEMLHKAEIVHGDLSPRCLILRNRIHDPYDCNKNNQALKIVDFSYSVDLRVQLDVFTLSGFRTVQILEGQKILANCSSPYQVDLFGIADLAHLLLFKEHLQVFWDGSFWKLSQNISELKDGELWNKFFVRILNANDEATVSVLGELAAEMNGVFDTTFQSHLNKALWKVGKLTSPGALLFQ

Molecule: B2
binding result (BubR1:Bub3 complex): binds
